{"source": "patent US20180273970A1", "about": "“PLASMID, TRANSFORMED PLANT CELL AND TRANSGENIC PLANT COMPRISING THE SAME, AND METHODS FOR PREPARING A TRANSGENIC PLANT AND FOR INCREASING YIELD OF A PLANT UNDER ABIOTIC STRESSES” (Academia Sinica, priority 2014, published 2018)", "molecules": {"B1": {"name": "GBD-SKIN1 84-159 (other)", "chain": "MKLLSSIEQACDICRLKKLKCSKEKPKCAKCLKNNWECRYSPKTKRSPLTRAHLTEVESRLERLEQLFLLIFPREDLDMILKMDSLQDIKALLTGLFVQDNVNKDAVTDRLASVETDMPLTLRQHRISATSSSEESSNKGQRQLTVSVESKLKAEDEQVGLGCLDALEESLPIKRGLSNFYAGKSKSFTSLAEATASPAAAANELAKPENPFNKRRRILATWS"}, "B2": {"name": "SKIN1(1-83): truncated SKIN1 containing amino acids 1-83 (protein)", "chain": "MKLLSSIEQACDICRLKKLKCSKEKPKCAKCLKNNWECRYSPKTKRSPLTRAHLTEVESRLERLEQLFLLIFPREDLDMILKMDSLQDIKALLTGLFVQDNVNKDAVTDRLASVETDMPLTLRQHRISATSSSEESSNKGQRQLTVSMSTAVADVPPAAAYGFPGSAKRGKPEEVVVLMGKRRNEGFFIEEEEEEEEVLTESSSIGAPSPASSSIGENSGEEEGGDDEEE"}, "B3": {"name": "GBD-SKIN1 84-259 (other)", "chain": "MKLLSSIEQACDICRLKKLKCSKEKPKCAKCLKNNWECRYSPKTKRSPLTRAHLTEVESRLERLEQLFLLIFPREDLDMILKMDSLQDIKALLTGLFVQDNVNKDAVTDRLASVETDMPLTLRQHRISATSSSEESSNKGQRQLTVSVESKLKAEDEQVGLGCLDALEESLPIKRGLSNFYAGKSKSFTSLAEATASPAAAANELAKPENPFNKRRRILATWSRRASCSSLATATYLPPLLAPDHAVAEGDEGEEEDDDSDDDERQHRGKNGGRRESAAPPLPLPPPRLTLHTQMGGMVRRNGTFRSPRSLSLSDLQNSGGSC"}, "B4": {"name": "GBD-SKIN1 160-259 (other)", "chain": "MKLLSSIEQACDICRLKKLKCSKEKPKCAKCLKNNWECRYSPKTKRSPLTRAHLTEVESRLERLEQLFLLIFPREDLDMILKMDSLQDIKALLTGLFVQDNVNKDAVTDRLASVETDMPLTLRQHRISATSSSEESSNKGQRQLTVSRRASCSSLATATYLPPLLAPDHAVAEGDEGEEEDDDSDDDERQHRGKNGGRRESAAPPLPLPPPRLTLHTQMGGMVRRNGTFRSPRSLSLSDLQNSGGSC"}, "B5": {"name": "SnRK1A: rice Snf1-related protein kinase 1A, overexpressed from Ubi:SnRK1A effector (protein)", "chain": "MEGAGRDGNPLGGYRIGKTLGIGSFGKVKIAEHILTGHKVAIKILNRRKIKSMEMEEKVKREIKILRLFMHPHIIRLYEVIDTPADIYVVMEYVKSGELFDYIVEKGRLQEEEARRFFQQIISGVEYCHRNMVVHRDLKPENLLLDSKCNVKIADFGLSNVMRDGHFLKTSCGSPNYAAPEVISGKLYAGPEVDVWSCGVILYALLCGTLPFDDENIPNLFKKIKGGIYTLPSHLSPLARDLIPRMLVVDPMKRITIREIREHQWFTVGLPRYLAVPPPDTAQQVKKLDDETLNDVINMGFDKNQLIESLHKRLQNEATVAYYLLLDNRLRTTSGYLGAEFHESMESSLAQVTPAETPNSATDHRQHGHMESPGFGLRHHFAADRKWALGLQSRAHPREIITEVLKALQELNVCWKKIGHYNMKCRWSPSFPSHESMMHNNHGFGAESAIIETDDSEKSTHTVKFEIQLYKTRDEKYLLDLQRVSGPQLLFLDLCSAFLTQLRVL", "modifications": "left off: large carriers"}}, "key": {"αAmy3 SRC promoter [1]": {"system": "αAmy3 SRC promoter", "test": "Rice embryo transient expression assay, SRC-35Smp:Luc reporter (luciferase)", "type": "cell-based", "conditions": "24 h; for Antagonism of SnRK1A function on αAmy3 SRC promoter: co-transfected with Ubi:SnRK1A, +S or −S", "method": "FIG. 3. The highly conserved GKSKSF domain (KSD) is essential for SKINs to antagonize the function of SnRK1A. Rice embryos were transfected with plasmids, incubated in medium with 100 mM glucose (+S) or without glucose (−S) for 24 h, and assayed for luciferase activity. The luciferase activity in rice embryos bombarded with the SRC-35S mp-Luc construct only and in +S medium was set to 1×, and other values were calculated relative to this value. Error bars indicate the SE for three replicate experiments. (A) Plasmid constructs. (B) Rice embryos were co-transfected with effector Ubi:SnRK1A, Ubi:SKIN1 or Ubi:SKIN(Ri) alone and reporter SRC-35Smp:Luc, or co-transfected with effectors Ubi:SnRK1A and Ubi:SKIN or Ubi:SKIN(Ri) and reporter SRC-35Smp:Luc. (C) Total cellular proteins were extracted from rice embryos transfected with Ubi:SnRK1A, Ubi:SKIN or Ubi:SnRK1A and Ubi:SKIN by particle bombardment and subjected to Western blot analysis using antibodies against SnRK1A and the HA tag fused to at the N-terminus of SKINs. (D) Rice embryos were co-transfected with effectors Ubi:SnRK1A and Ubi:SKIN1 (wild-type or truncated) and reporter SRC-35Smp:Luc. (E) Rice embryos were co-transfected with effectors Ubi:SnRK1A and Ubi:SKIN (wild-type, KSD deleted, or KSD replaced with 6 Ala) and reporter SRC-35Smp:Luc.\n(§1) FIG. 21. ABA and sorbitol suppress the function of SnRK1A in activation of αAmy3 SRC promoter. Rice embryos and barley aleurones were transfected with reporter SRC-35Smp:Luc with or without effectors, incubated with or without ABA for 24 h, and assayed for luciferase activity. The luciferase activity in embryos or aleurones bombarded with the SRC-35S mp-Luc construct only and in +S medium was set to 1×, and other values were calculated relative to this value. Error bars indicate the SE for three replicate experiments. (A) Plasmid constructs. (B) Barley aleurones were transfected with effector Ubi:SnRK1A, Ubi:SKIN1 or Ubi:SKIN(Ri) alone and reporter SRC-35Smp:Luc, or co-transfected with effectors Ubi:SnRK1A and Ubi:SKIN or Ubi:SKIN(Ri) and reporter SRC-35Smp:Luc. (C) Rice embryos (upper panel) were transfected with or without Ubi:SnRK1A and incubated with or without 1 μM ABA or 50 mM sorbitol, and barley aleurones (lower panel) were transfected with or without Ubi:SnRK1A and incubated with 5 μM ABA or 400 mM sorbitol.\nRice embryos were prepared for particle bombardment as described (Chen et al., 2006). The rice embryos were bombarded with reporter, effectors and internal control at a ratio of 4:2:1 for single effector or 4:2:2:1 for two effectors. The internal control (Ubi::GUS) was used to normalize the reporter enzyme activity because different transformation efficiency might occur in each independent experiment. Bombarded rice embryos were divided into two halves, with half being incubated in MS liquid medium containing 100 mM Glc, and the other half grown in MS liquid containing 100 mM mannitol, for 24 h. Total proteins were extracted for embryos with a cell lysis buffer [0.1 M K-phosphate, pH 7.8, 1 mM EDTA, 10% glycerol, 1% triton X-100, and 7 mM β-mercaptoethanol]. GUS assay buffer [0.1 M Na-phosphate, 20 mM EDTA, 0.2% sarcosine, 0.2% Triton X-100, and 20 mM β-mercaptoethanol] was used for GUS activity assay. The activity assay of GUS and luciferase were described elsewhere (Lu et al., 1998). All bombardments were repeated at least three times."}, "αAmy3 SRC promoter [2]": {"system": "αAmy3 SRC promoter", "test": "Barley aleurone transient expression assay, SRC-35Smp:Luc reporter (luciferase)", "type": "cell-based", "conditions": "barley aleurones, 5 μM ABA or 400 mM sorbitol, 24 h", "method": "as §1\nThe barley aleurone/endosperm transient expression assays were performed as described (Hong et al., 2012). Each independent experiment consisted of three replicates, with six endosperms for each treatment, and was repeated three times with similar results. Luciferase and GUS activity assays were performed as described (Hong et al., 2012). […]"}, "SKIN1": {"system": "SKIN1", "test": "Quantitative RT-PCR of SKIN1 mRNA in leaves of 2-week-old rice seedlings after stress or ABA", "type": "in vivo", "conditions": "6 h after salt stress (200 mM NaCl)", "method": "FIG. 9. The expression of SKIN is induced by various abiotic stresses and ABA, and SKINs promote the ABA sensitivity. (A) Total RNA was purified from leaves of 2-week-old rice seedlings that had been air dried, treated with 200 mM salt, incubated at 4° C., or treated with 1 μM ABA, or from embryos of seedlings grown underwater (hypoxia), for various lengths of time. RNAs were subjected to quantitative RT-PCR analysis using primers specific for SKIN1 and SKIN2. The highest mRNA level was set as 100%. The lowest mRNA level was assigned a value of 1× and mRNA levels of other samples were calculated relative to this value. Error bars indicate the SE for three replicate experiments. (B) Seeds of transgenic lines SKIN1-Ox(O3), SKIN1-Ri(R3), SKIN2-Ox(02) and SKIN2-Ri(R1) were germinated and grown in water containing various concentrations of ABA at 28° C. under a 14-h light/10-h dark cycle for 6 days. Lengths of shoots were measured. Error bars represent SE (n=8) at significance levels: * p<0.1, ** p<0.05. […]\nTotal RNA was extracted from leaves of rice seedlings with the Trizol reagent (Invitrogen) and treated with RNase-free DNase I (Promega, Madison, Wis.). […] The quantitative variation between different samples was evaluated by the delta-delta CT method, and the amplification of 18S ribosomal RNA was used as an internal control to normalize all data."}, "[3]": {"biological_target": "T1, GAD-SnRK1A (full-length SnRK1A 1-505 fused to the Gal4 activation domain) (rice, UniProt Q852Q2 1-505)", "T1 construct": "range 1-505", "T1 sequence (looked up)": "B5 chain", "test": "yeast two-hybrid, GBD-SKIN1 truncation with GAD-SnRK1A", "excerpt": "FIG. 14. The N-terminal amino acids 1-83 of SKIN1 interact with the kinase and autoinhibitory domains of SnRK1A in yeast. (A) Plasmid constructs ADH1:GAD-SnRK1A and ADH1:GBD-SKIN1 (wild type or deletion at N- or C-terminus) were used as effectors, and Mel1:LacZ, Mel1:Mel1 and Gal1:HIS3 were used as reporters. (B) The N-terminus of SKIN1 interacts with SnRK1A in the yeast two-hybrid assays. (C) The kinase domain (KD) and auto-inhibitory domain (AID) of SnRK1A interact with SKIN1 and SKIN2. Yeast strain AH109 containing GAD-SnRK1A or GAD alone (-) was mated with yeast strain Y187 containing various GBD-SKIN1 constructs or GBD alone (-). The interaction between p53 and large T-antigen (T-Ag) was used as a positive control."}}, "data": [{"molecule": "OC[C@@H](O)[C@@H](O)[C@H](O)[C@@H](O)CO", "note": "[sorbitol]", "values": [{"measurement": "Effect on αAmy3 SRC promoter (luciferase activity), alone and SnRK1A-activated", "setting": "αAmy3 SRC promoter [1]; rice embryos, 1 μM ABA or 50 mM sorbitol", "value": "suppressed"}, {"measurement": "Effect on αAmy3 SRC promoter (luciferase activity), alone and SnRK1A-activated", "setting": "αAmy3 SRC promoter [2]", "value": "suppressed"}]}, {"molecule": "[Cl-].[Na+]", "note": "[salt, NaCl]", "values": [{"measurement": "Induction of SKIN1 mRNA accumulation", "setting": "SKIN1", "value": "≤ 2.3", "unit": "fold"}]}, {"molecule": "B1", "values": [{"measurement": "binding result", "setting": "[3]", "value": "no binding"}]}, {"molecule": "B2", "values": [{"measurement": "Antagonism of SnRK1A function on αAmy3 SRC promoter", "setting": "αAmy3 SRC promoter [1]", "value": "did not antagonize"}]}, {"molecule": "B3", "values": [{"measurement": "binding result", "setting": "[3]", "value": "no binding"}]}, {"molecule": "B4", "values": [{"measurement": "Antagonism of SnRK1A function on αAmy3 SRC promoter", "setting": "αAmy3 SRC promoter [1]", "value": "did not antagonize"}, {"measurement": "binding result", "setting": "[3]", "value": "no binding"}]}, {"molecule": "B5", "values": [{"measurement": "αAmy3 SRC promoter activity on overexpression of the effector", "setting": "αAmy3 SRC promoter [1]; 100 mM glucose (+S) or without glucose (−S)", "value": "enhanced"}]}]}
